Source: patent EP3020822A1

Target: human TLR3, full length (human) (UniProt O15455)
Assay: cell-based or functional assay

B1: mAb c1068 (antibody, from another filing, V domains shown)
VH: QVQLQQPGAELVQPGTSVRLSCKASGYIFTTYWIHWVKQRPGQGLEWIGEINPNNGRINYNEKFKTKATLTVDKSSSTAYMQLSSLTSEDSAVYYCTRVGVMITTFPYWGQGTLVTVSA
VL: DIQMTQSPASLSASVGETVTITCRASGNIHNYLAWYQQKQGKSPQLLVYNAKTLADGVPSRFSGSESGTQYSLKINSLQPEDFGSYYCQHFWSTPFTFGSGTKLELK
- % inhibition of TLR3 biological activity, poly(I:C) NF-κB reporter gene assay in 293T cells, mAb at 10 µg/ml: 38%
- TLR3 neutralization at saturation concentrations: 50%
